Results taken from patent US20090130070A1, “METHOD OF TREATMENT” (The University of Queensland, priority 2004, published 2009).

Tests used:
BMP-6 = target: T1, BMP-6 (Homo sapiens, UniProt P22004); settings: cited from earlier work
T1 sequence (P22004 375-513): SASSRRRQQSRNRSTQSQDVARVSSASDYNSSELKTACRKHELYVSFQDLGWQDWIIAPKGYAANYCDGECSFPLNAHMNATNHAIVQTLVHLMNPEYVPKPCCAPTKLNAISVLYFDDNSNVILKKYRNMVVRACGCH

[1] = Penetration of Oregon green labeled fetuin A into wounds in the porcine burn model; assay type: in vivo, pigs; settings: 4 hours post treatment
Protocol: The potential use of the protein as a topical application was explored by labeling the protein with FluoroReporter Oregon Green® 488 Protein (Molecular Probes) then applying it as 1) a hydrophobic cream 2) a hydrophilic cream and an aqueous solution. These were applied to a porcine burn model and skin samples were collected 4 hours after application. Penetration of the protein into the wound was observed by epifluorescent microscopy.
Lyophilised bovine Fetuin A (Sigma) was dissolved in purified water at a concentration of 10 mg/mL. Aliquots of 200 μl were labelled using a FluoroReporter Oregon Green® 488 Protein Labelling Kit (Molecular Probes) after the manufacturer's instructions. The resulting solution was dried down using a Labconco Centrivap concentrator and weighed. Sufficient carriers (paraffin cream (Orion, Australia), aqueous cream (Orion, Australia) or purified water) were added to produce a final concentration of 2 mg/ml of solution or 2 mg/g fetuin cream. Sufficient unlabelled fetuin A was added to the solution and cream to bring the total fetuin A concentration up to 40 mg/ml or gram.
All animal experiments were approved by the University of Queensland animal ethics committee. Six 20 kg pigs (approximately 9 weeks post partum) were scalded under general anaesthesia. Water (400 mls) was placed in a 500 ml Schott bottle whose base had been removed with a diamond saw and replaced by cling wrap held in place by autoclave tape. The water was heated in a microwave oven to 92° C. (temperature was measured with a Dick Smith Q1437 digital thermometer) then the bottle was placed on the clipped side of the animal for 15 seconds. A single 8.5 cm diameter wound was placed on each side of the animal. Each animal received a different treatment these being:
1. Treatment of intact skin with an aqueous solution of 2 mls of Oregon green labeled bovine fetuin (40 mg/ml in sterile phosphate buffered saline pH 7.4).
2. Treatment of intact skin with an aqueous gel of 2 g of Oregon green labeled bovine fetuin (40 mg/g in Solosite™ wound gel).
3. […]

TGF-β2 = target: T2, TGF-β2 (Homo sapiens, UniProt P61812); settings: cited from earlier work
T2 sequence (P61812 303-414 limits assumed): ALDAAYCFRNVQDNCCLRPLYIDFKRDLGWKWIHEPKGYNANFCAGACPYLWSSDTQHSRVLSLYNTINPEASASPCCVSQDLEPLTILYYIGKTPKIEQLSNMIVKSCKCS

TGF-β3 = target: T3, TGF-β3 (Homo sapiens, UniProt P10600); settings: cited from earlier work
T3 sequence (P10600 301-412 limits assumed): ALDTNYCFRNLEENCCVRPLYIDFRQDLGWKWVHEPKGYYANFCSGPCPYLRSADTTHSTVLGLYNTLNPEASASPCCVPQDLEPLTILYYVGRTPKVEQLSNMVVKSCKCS

Substance: Fetuin: bovine fetuin A (Sigma); glycoprotein also called alpha2-Heremans-Schmid-glycoprotein (AHSG)
- binding to BMP-6 (BMP-6): strongly
- penetration into the wound bed ([1]; debrided wound, aqueous solution): significant penetration into the wound bed
- penetration into the wound bed ([1]; debrided wound, water based gel): significant penetration into the wound bed
- penetration into the wound bed ([1]; direct injection into the wound): significant penetration into the wound bed
- binding to TGF-β2 (TGF-β2): strongly
- binding to TGF-β3 (TGF-β3): weakly
